Our source for the protein stability index values is the supplement of paper PMC10567573.

The labels stand for the following.
B1: ZNF511 (parent)
chain: FDALDDYEHHYHTLHGNVCSFCKR
B2: VENTX (parent)
chain: VFQHHQYLSPLERKRLAREMQLSE
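Note: lentivirally expressed fusions sorted by FACS into six bins by GFP to DsRed ratio, PSI derived from sequencing read proportions per bin multiplied by bin number.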

Variants of B1 are the subject of one data set. Kind of data set: protein stability index of a GFP-peptide fusion (GPS, HEK-293T) (PSI 1-6); higher = more stable. The following applies: c terminus: a fixed tail appended.
With FDALDDYEHHYHTLHGNVLSFCKR [C19L], the protein stability index amounted to 3.71.

In the case of FDALDDYEHHYHTLHGNVCCFCKR [S20C], the protein stability index was found to be 3.4.

For the variant FDALDDYEHHYHTLHGNVCPFCKR [S20P], the protein stability index was found to be 3.54.

On to FDALDDYEHHYHTLHGNVCQFCKR [S20Q], for which the protein stability index was determined as 3.85.

For the variant FDALDDYEHHYHTLHGNVCTFCKR [S20T], the protein stability index is 3.81.

Consider FDALDDYEHHYHTLHGNVCLFCKR [S20L], for which the protein stability index was 3.35.

For FDALDDYEHHYHTLHGNVCHFCKR [S20H], the protein stability index came to 3.56.

With FDALDDYEHHYHTLHGNVCDFCKR [S20D], the protein stability index was 2.75.

As for FDALDDYEHHYHTLHGNVCMFCKR [S20M], the protein stability index was 4.04.

For the variant FDALDDYEHHYHTLHGNVCVFCKR [S20V], the protein stability index amounted to 3.64.

FDALDDYEHHYHTLHGNVCFFCKR [S20F]: the protein stability index is 3.67.

As to FDALDDYEHHYHTLHGNVCWFCKR [S20W], the protein stability index came to 2.63.

For FDALDDYEHHYHTLHGNVCEFCKR [S20E], the protein stability index amounted to 4.44.

For FDALDDYEHHYHTLHGNVCAFCKR [S20A], the protein stability index turned out to be 3.81.

On to FDALDDYEHHYHTLHGNVCIFCKR [S20I], for which the protein stability index worked out at 3.83.

As for FDALDDYEHHYHTLHGNVCRFCKR [S20R], the protein stability index came to 3.27.

Take FDALDDYEHHYHTLHGNVCKFCKR [S20K]: the protein stability index is 3.76.

Take FDALDDYEHHYHTLHGNVCGFCKR [S20G]: the protein stability index came to 2.7.

In the case of FDALDDYEHHYHTLHGNVCNFCKR [S20N], the protein stability index is 3.74.

As for FDALDDYEHHYHTLHGNVCYFCKR [S20Y], the protein stability index was determined as 4.29.

As for FDALDDYEHHYHTLHGNYCSFCKR [V18Y], the protein stability index was found to be 3.7.

For the variant FDALDDYEHHYHTLHGNTCSFCKR [V18T], the protein stability index turned out to be 3.76.

Regarding FDALDDYEHHYHTLHGNKCSFCKR [V18K], the protein stability index was 4.05.

Regarding FDALDDYEHHYHTLHGNPCSFCKR [V18P], the protein stability index stood at 4.49.

Consider FDALDDYEHHYHTLHGNICSFCKR [V18I], for which the protein stability index was 3.53.

Regarding FDALDDYEHHYHTLHGNLCSFCKR [V18L], the protein stability index stood at 3.83.

In the case of FDALDDYEHHYHTLHGNGCSFCKR [V18G], the protein stability index was found to be 4.05.

On to FDALDDYEHHYHTLHGNQCSFCKR [V18Q], for which the protein stability index stood at 4.18.

FDALDDYEHHYHTLHGNRCSFCKR [V18R]: the protein stability index is 3.88.

Consider FDALDDYEHHYHTLHGNHCSFCKR [V18H], for which the protein stability index turned out to be 2.93.

As to FDALDDYEHHYHTLHGNSCSFCKR [V18S], the protein stability index worked out at 3.82.

Regarding FDALDDYEHHYHTLHGNNCSFCKR [V18N], the protein stability index was 3.89.

Take FDALDDYEHHYHTLHGNWCSFCKR [V18W]: the protein stability index was 2.8.

Turning to FDALDDYEHHYHTLHGNMCSFCKR [V18M], the protein stability index worked out at 3.68.

Variants of B2 are the subject of a further data set. The description is as above. The following applies: c terminus: a fixed tail appended.
For the variant VSQHHQYLSPLERKRLAREMQLSE [F2S], the protein stability index worked out at 3.91.

Consider VPQHHQYLSPLERKRLAREMQLSE [F2P], for which the protein stability index was found to be 4.18.

With VAQHHQYLSPLERKRLAREMQLSE [F2A], the protein stability index worked out at 2.11.

Take VGQHHQYLSPLERKRLAREMQLSE [F2G]: the protein stability index stood at 3.57.

In the case of VNQHHQYLSPLERKRLAREMQLSE [F2N], the protein stability index is 2.97.

Take VCQHHQYLSPLERKRLAREMQLSE [F2C]: the protein stability index was found to be 3.08.

Regarding VWQHHQYLSPLERKRLAREMQLSE [F2W], the protein stability index stood at 2.42.

In the case of VEQHHQYLSPLERKRLAREMQLSE [F2E], the protein stability index came out at 4.48.

Take VQQHHQYLSPLERKRLAREMQLSE [F2Q]: the protein stability index stood at 4.

VLQHHQYLSPLERKRLAREMQLSE [F2L]: the protein stability index came to 3.22.

Turning to VRQHHQYLSPLERKRLAREMQLSE [F2R], the protein stability index was found to be 3.02.

For VTQHHQYLSPLERKRLAREMQLSE [F2T], the protein stability index came out at 3.05.

As to VIQHHQYLSPLERKRLAREMQLSE [F2I], the protein stability index amounted to 3.12.

For the variant VMQHHQYLSPLERKRLAREMQLSE [F2M], the protein stability index came to 3.1.

For VDQHHQYLSPLERKRLAREMQLSE [F2D], the protein stability index is 4.44.

Regarding VHQHHQYLSPLERKRLAREMQLSE [F2H], the protein stability index amounted to 3.38.

Regarding VKQHHQYLSPLERKRLAREMQLSE [F2K], the protein stability index was found to be 3.61.

In the case of VYQHHQYLSPLERKRLAREMQLSE [F2Y], the protein stability index is 3.01.

For the variant VVQHHQYLSPLERKRLAREMQLSE [F2V], the protein stability index stood at 2.55.

With QFQHHQYLSPLERKRLAREMQLSE [V1Q], the protein stability index was 2.19.

As for MFQHHQYLSPLERKRLAREMQLSE [V1M], the protein stability index was 2.38.

EFQHHQYLSPLERKRLAREMQLSE [V1E]: the protein stability index amounted to 2.49.

Consider CFQHHQYLSPLERKRLAREMQLSE [V1C], for which the protein stability index stood at 2.45.

For HFQHHQYLSPLERKRLAREMQLSE [V1H], the protein stability index was 2.34.

NFQHHQYLSPLERKRLAREMQLSE [V1N]: the protein stability index stood at 2.9.

With KFQHHQYLSPLERKRLAREMQLSE [V1K], the protein stability index was 2.6.

As for DFQHHQYLSPLERKRLAREMQLSE [V1D], the protein stability index worked out at 2.83.

As to SFQHHQYLSPLERKRLAREMQLSE [V1S], the protein stability index is 3.1.

For WFQHHQYLSPLERKRLAREMQLSE [V1W], the protein stability index was determined as 1.92.

Regarding PFQHHQYLSPLERKRLAREMQLSE [V1P], the protein stability index is 2.35.

With RFQHHQYLSPLERKRLAREMQLSE [V1R], the protein stability index amounted to 2.42.

In the case of LFQHHQYLSPLERKRLAREMQLSE [V1L], the protein stability index is 3.38.

Regarding TFQHHQYLSPLERKRLAREMQLSE [V1T], the protein stability index was determined as 2.88.

As to FFQHHQYLSPLERKRLAREMQLSE [V1F], the protein stability index worked out at 2.1.

Consider AFQHHQYLSPLERKRLAREMQLSE [V1A], for which the protein stability index was found to be 2.28.

Regarding IFQHHQYLSPLERKRLAREMQLSE [V1I], the protein stability index is 2.36.

Regarding GFQHHQYLSPLERKRLAREMQLSE [V1G], the protein stability index is 2.09.

Regarding YFQHHQYLSPLERKRLAREMQLSE [V1Y], the protein stability index came out at 2.36.

For VFVHHQYLSPLERKRLAREMQLSE [Q3V], the protein stability index turned out to be 2.78.

For VFEHHQYLSPLERKRLAREMQLSE [Q3E], the protein stability index was determined as 3.84.

VFPHHQYLSPLERKRLAREMQLSE [Q3P]: the protein stability index was 2.98.

For the variant VFLHHQYLSPLERKRLAREMQLSE [Q3L], the protein stability index was 1.29.

With VFFHHQYLSPLERKRLAREMQLSE [Q3F], the protein stability index worked out at 1.66.

For the variant VFKHHQYLSPLERKRLAREMQLSE [Q3K], the protein stability index amounted to 3.

VFAHHQYLSPLERKRLAREMQLSE [Q3A]: the protein stability index was determined as 3.03.

VFSHHQYLSPLERKRLAREMQLSE [Q3S]: the protein stability index turned out to be 3.81.

Regarding VFGHHQYLSPLERKRLAREMQLSE [Q3G], the protein stability index worked out at 2.82.

For VFHHHQYLSPLERKRLAREMQLSE [Q3H], the protein stability index stood at 2.11.

Turning to VFRHHQYLSPLERKRLAREMQLSE [Q3R], the protein stability index came to 2.17.

On to VFYHHQYLSPLERKRLAREMQLSE [Q3Y], for which the protein stability index was determined as 2.56.

On to VFNHHQYLSPLERKRLAREMQLSE [Q3N], for which the protein stability index stood at 3.05.

Regarding VFWHHQYLSPLERKRLAREMQLSE [Q3W], the protein stability index is 1.79.

Take VFCHHQYLSPLERKRLAREMQLSE [Q3C]: the protein stability index came to 1.85.

On to VFIHHQYLSPLERKRLAREMQLSE [Q3I], for which the protein stability index is 2.07.

Regarding VFTHHQYLSPLERKRLAREMQLSE [Q3T], the protein stability index is 2.96.

As for VFDHHQYLSPLERKRLAREMQLSE [Q3D], the protein stability index came out at 4.04.

In the case of VFMHHQYLSPLERKRLAREMQLSE [Q3M], the protein stability index worked out at 2.27.

As for VFQDHQYLSPLERKRLAREMQLSE [H4D], the protein stability index was found to be 3.68.

Consider VFQCHQYLSPLERKRLAREMQLSE [H4C], for which the protein stability index was determined as 2.56.

As for VFQAHQYLSPLERKRLAREMQLSE [H4A], the protein stability index is 3.37.
